assay: soluble on expression in E. coli; label from the status in PepcDB or PDB records

Soluble on expression in E. coli, not soluble:
MGSDKIHHHHHHMVETYTLNPNLTKTAAVAEWLQQRIDWHIYLPNQRVPSVRKLAKLLNISSFTVVQAYEQLVATGVLIAKPSSGYYVNTQSKLVQPNDDKRKVFKHPVIDTRWLVQQVFSDIPHNRSPGVGTLPRDWVRNDKMEWAIRQVTQQADSFIYDYGNVQGYLPLRQQLVQHLHTLGMQTHADHVITTAGVSQAVTMVARLLTQAGDTVVVDGPGWYWLSSCLQQQGLNVVSVERDHQGPNIEQMQKLFAAHRPKLYLTNSVLHNPTSYNLHPARAHQVLNLIHEYDAYIFEDDLYAAFVPGGQVLRYASLDQFERVFYATGFSKSMASGWRVGMLVCPDNYIDDVLRIKTLSNSNTPEFGERVCHHLWTHGEYRRQIKKVQQHLYRAHERMRKALPKIRLIYPEHTQAGLFVWVDMGQDTSQLALDAYKEGWLVAPGQLFYPDVSASTHLRLNVSTTSDEFLRWLGDYLDKSCQY
MGSDKIHHHHHHMVFFMLIIDVNHGALTLAEEYLNLGYEVDVWDIYQKIKKSEDFKVKYQKLKEKFGNKLNLFFEQPNFEKYDRVIAPIHCPIDVDFIPFTDAVSKILKEKFGNIHKKIINVTGVKGKTTTTSLINHILKDKYSTYLHNSNFGSIAPPTILKVLNSLDIDKYDFFIFETSLGLIKCKYGAITNVLENYKIAGGRKDALTAKFSSLKNAELSFINKRDINRYDLNINHKCLNVVDVDRAKILDKYPLKFKYFDEIFEFSKNIFGLHFVENSLFAIEICKNLVDMEEIRYRLKTFTIKNRMEIKEINKKILVKNINPGLDVKAISYAIKDFLEVFGGDIYIGGDFGIVCEEIDVKKLSEVLKRFNCRYIFVGEIGKELLNYLNGGYIKSYDENKIKRDSLVILREKIK
MGSDKIHHHHHHMVIDSIRSSSTGPRDAPGKRLAVGISLFARDGQAIWENGIHQNIAFLAMMLKQSDRIGPVYFLNGGDAKALPAGLDLGGLDVPLVQPRDVSHALDVVIEMGAQLPVDWLKHMKALGKKLVVCFVGHTYSGLTETPMFNRPSGHIFNGGPFDEVWILPKSEKIDAPLLRTLTRAPVHVVPHIWSPYFIERRARELEAAGLRFGYAPGRAKWRLSILEPNISVVKTCHYPMLAADEFHRAQPDAVEHLFVVNSLHMKEHPTFVHFANSLDLVREHKATFEPRIDLPSFLAQHGDAVISHQWENPQNYLYYDVLYGGYPLVHNSPMLGDAGYYYPEFDSAAGGRALQHAWRHHDAHLDDYRRHADALLQAVSIDNRRNLDAYVARLFA
MGSDKIHHHHHHMVKFIHCSDLHLDSPFKSKSHISPKIFEDVQKSAYESFKNIVDIALQQDVDFVIIAGDLFDSENRTLRAEIFLKQQFERLQNEQIFVYVCHGNHDPLSSKISSNWPDNVSVFSNKVETYEAITKSGETIYIHGFSYENRASYENKIDEYPSSQGQKGIHIGVLHGTYSKSSVNERYTEFILEDLNSKLYHYWALGHIHERQQLSDMPVINYSGNIQGRHFNEQGEKGCLLIEGDHLKLKTKFYPTQYIRFEEATIETDKTSKQGLYEVIQNFKEQVREEGKAFYRLTLVINSETLISPQDLLQVEEMITDYEENENQFVYIDELKIQYAQNDESPLVNEFSAELLVDQTVFDKAMSDLYLNPRASKFLDDYGTFDHTALVNRAEEILKAEMRGEQNDN
MGSDKIHHHHHHMVKMNMSDIDISEPLSDLLAPLNNEQREFLMNNYTIQTYKKNETIYCEGETPSHLMCLITGKVKIFKDGVGGRSQIIRMIKQREYFAYRAYFAKEDFVTAAAAFEPSVICLIPMTAITTLVAQNNDLAMFFIRQLSIDLGISDERTVSLTQKHIRGRLAESLIFLKESYGLEEDGSTLSIYLSREDLANLSNMTTSNAIRTLSQFATERLITIDGRKIKIIEEEKLKKISKIG
MGSDKIHHHHHHMVMDHDIYFGYQRPRPTEYVQFANFDSRQLNLYLAGRIANNPPTKEVTESIGYMDGIIDFSDILGRRIFDNRTIEYQFKALNINYHDRKLLEQKCKRLLLIPMRQPIYDSHDLPFYWFGKASSVTANDDHVNNVLEITVQFNVSPYALRKGQFDDIWDNFSLETGYAQFTKYSVKGTKKISLYNDSDLKSRLKVICQNDMTINGKYKYTKNYQDNPNFRLEPGINDLTVNGNGDIEFQWESEVML
MGSDKIHHHHHHMVNGNITQLSDMQIPENWGAYLAEKSTQNNAFFTSGVVQNVPQIAALLGAGKVANMPLFKPLADDDPQVPDDTTDLLVNKITTDLAQARKLGFDQAWSATDLSAELSGADPLSAIGDQVSDYWSHVYEKLLLQTLTGVFSSTSMKGVNQLDTTTDKTDTTFSLKNFNKARFLLGDRYKDLAIVAVHSDILRQLQDANLVDAKNNSTFVLNGNSNVPTAIQTPDAGDKIKGVQIVVDDSLPVDNGKYTSYLFAQGAVGYSELPVTNAVETNRDPLKNHGIDYLVNRRRFVFAPQGLSWNESNFVTKNPGKTYPSMTDLADGTNWSKVYDHKLIPMAQFVTSADAIVPSTTADPQTGK
MGSDKIHHHHHHMVNHTQFRQWGRKVIDIEKAALDNLYQYVDSVEFDQACQLIMQCKGKVIVMGMGKSGHIGNKISATFASTGTPAFFVHPGEASHGDLGALAKNDIVLAISNSGESSEILTLMPVIQRMGVPVIAVTGKPDSNMARLSKIHLCIQVQEEACPLGLAPTSSTTATLAMGDALAIALLQAKGFTRDDFALSHPGGSLGRKLLLKVDDVMHQGDDLPIVNDDICITDALYEISKKGLGMTAVVDHASKLVGIFTDGDLRRVIDADVNLRTTSIAHVMTKNCVTSPAGILAAQALQIMDEKSINGLIVVNEKHQPIGALNMLDMVKAGVI
MGSDKIHHHHHHMVNNQLELEVKSFLEGQSDFANLPSSEITRLSQVIRKKKIRQGQWIFDQEDEFEYVFLMKEGHVKLFSMNLEGDMTSVSYIVPQMVFPLRGILQGRKYCYNAVAMCTSEVYILPIKEMRKIIVHHYAFTMAFMRRMEHRLHRSEKLLEKTTCSSAAQRVRQVLDYLNEDYAQTHGTVKKVPFKIFLKDLAVLSATTSETAGSVIKAMKEEKKVLYNNKIISFI
MGSDKIHHHHHHMVQAIDNTIATNFLTDAVVERHNFSQLNKTRIRFRIQLKKSTKSAAPKWADVLQAEVSEIESDLVKVTNSEVGLRGIKVFKKLDEAAAQLRQEIASVQEWMSADTGDWVCPIDLAPLVWNQLINIRDNIAPGLRNQLKADYEAGLVDYQERIDQFLSLNTWELAQDKQESVKANLLRAFPTLTDLEDYLQVVIGRPVIIPALSEQLNQQQAECLDQITKFIQQYDQNLEQRLRESALAGGEQLAAQLLEELADWEPGRKPVQFKKKMERHLMKVQVLLANADSEAGSSLEAMMTHLDSIVNDPAIESKNLGSDTRSQLQQKMQEIRIKLLDEQRNLQSLATEDVGLSKATVMSFKFR
MGSDKIHHHHHHMVRPQRNKKRFILILNGVWNLEVTSKDRPIAVPGSWNEQYQDLCYEEGPFTYKTTFYVPKELSQKHIRLYFAAVNTDCEVFLNGEKVGENHIEYLPFEVDVTGKVKSGENELRVVVENRLKVGGFPSKVPDSGTHTVGFFGSFPPANFDFFPYGGIIRPVLIEFTDHARILDIWVDTSESEPEKKLGKVKVKIEVSEEAVGQEMTIKLGEEEKKIRTSNRFVEGEFILENARFWSLEDPYLYPLKVELEKDEYTLDIGIRTISWDEKRLYLNGKPVFLKGFGKHEEFPVLGQGTFYPLMIKDFNLLKWINANSFRTSHYPYSEEWLDLADRLGILVIDEAPHVGITRYHYNPETQKIAEDNIRRMIDRHKNHPSVIMWSVANEPESNHPDAEGFFKALYETANEMDRTRPVVMVSMMDAPDERTRDVALKYFDIVCVNRYYGWYIYQGRIEEGLQALEKDIEELYARHRKPIFVTEFGADAIAGIHYDPPQMFSEEYQAELVEKTIRLLLKKDYIIGTHVWAFADFKTPQNVRRPILNHKGVFTRDRQPKLVAHVLRRLWSEV
MGSDKIHHHHHHMVTEIELKYSLLDSNEQTKPEKIKTTISQLLSEHDVTFVHQEKQLSNHYFDTADLTLRKNRIALRTRGTKCFDETKRFEQTIKTSGTIIAGLHQRPEYNVDIGDAKPIVSLFPDIIFQPNIDINLLQQQIVELFSTHFTRHTWLVSFEDAQIEIAFDCGEVACQNYVKKPRIYEIELEFVSGDSQALLGLTKLLFSQLALRPGQLTKAARGYALYHESLTLASHVENKPPNNSAIVEQIELSMINLPKKIPLHNALTHGIEFSLNQLQLCVDSYVEVPSFNMLSKVSEQLILLRQGFWLFDELLSPDEKALRTELSYFIRTIHWVENARYIQLLINKQSSYQKENLINQELITKLQLRQSRYPRELQVLELLHSERFNNLQVDLLSLLLKRNSDETLKIDNSSSLVEFATKHLTNSTKALSDELVKLQKPQDSTSIELYLTAHSLLIRALLTTSWFSCLFAEPESDIVKRFNMPLLDIKQGIIELQSLSLLLQQLKHLPKKENKLTQWLTNKSENLITALDQSRAKALTMKPYWP
MGSDKIHHHHHHMWIGFDYGSANCAVGIMHEGKISQIPLSANSQYLPSTLYALDRELIAQAVYQGISQDKKSEYAKLRSSQLSRAIQVRHELDLSMDEQTVFVGQAAIDAYLEMPEEGFYVRSPKSFLGANGLREEQVALFEDIVTLMMLHVKGITDNYLADNGLPAATHAVIGRPVNFQSIGGEKSNQQAEAILSLAAKRAGFTQVAFLFEPVAAGMDFEASLEQDSTVLVVDVGGGTTDCSVVRMGPSFAANKQREQDCLGHSGQRVGGNDLDIALAMKGFMPSLGLDSLLKSGKPMPSAPFWQAVAVNDVSAQRDFASLNARKLLDTLVKDAKEPELVKRLKKVQQDQLGYKLVRQAEGAKVTLSDAMQTECDLGFIASDLSVELTQAQFSHFIIEPLAKIEALIQAAVAKADVNPDLVYVTGGTARSPAIYAKIASVYPEAKIVVGDHFGSVTAGLTRWTQKVF
MGSDKIHHHHHHMWLKAKKDAEAGAVSFSNQNGKFAEVSSVNTEEFSFRIYQVFGGGHVELSYDTVTTAVSVIYWFTASDVLETGITVVHTKPDNAAPELPGSYHFRPPFGWMNDPNGFGRFEGRPHLFYQHYSHGLRWNTMHWGHAVSSDYLRWRHLPIFLFPSEDLTTRPDKRGGAYSGSTIPLVEGSGIRVFFTEQVQDRIPEQQIQLTATSSDLIMAGQADVILAHRPDGQGLTPDFRDPYVFRGPDGLWKMLLGSQSDGGGVILLYETLDPTAASGWTYVGKLWVETRYKTTAIECPCLLPLDGPANARSTRWVLIYGLMHSEDPETGRKNLTMADVGWFDGKVFTKEFGQELDFGTDNYAFQAFLDGDSIIGIGWLANWADANPEIDFPTSMTLPRRIHYANGELLTPPIGAAESLRSHILDRTRLAAGERVTFINGAVEILIELASSDAAFELALDHPTVTLGLVSDETGLWIRHEDGRDGASPHYIAKGARASRIRIFLDYGSIEVFANRGRYVGTKRIEGFEPVRSALLRADPGAVVHATSWALKP
MGSDKIHHHHHHMWRNAQVNWDDYRCFLTLAKTGSFSRAARLLHVDHTTVGRRVAALEVDLGIKLVERLAREVRLTAEGHDLATLGLPVEEAMASVERAAAGGGAALAGPVHISAPPGLASLLLAPKLVSLHRQYPEIKITMSSDKDFANLNRREADIALRLSRPLSNGLVARKLRDIPFFFFASHTYDIAEDDWEFITYLQADDILPQQSWLMQHIGSRTIALRCSDAASQVQAAASGLGVALLPDYLGYNDTRLRKCPSRLTPPRRELWMVVHDDIRHAPRVRVVLDFLIGILTATQDLELPHASEA
MGSDKIHHHHHHMWVRVPPPAPFSIFLSPGDDIVKRRKSTRTSSFGVKGRESHDSSPFYSRAIYSNFSLPKPSEEDLIENPLPENLLDKVIEGDAREVLKKIPDCSIHLMVTSPPYNVGKEYDEDMTLDEYLEFIEEIMKEVYRVLVWGGRACFNVANLGRKPYIPLHAYLIHLFEKIGFLIRGEIIWDKGEAVSGSSTAWGSWMSPVNPVLRDQHEYIIVMSKGDLKRRKPSDREAKSTITREEFLEFTRSVWKFPPESAKRVGHPAPFPEELPYRCIQLYTFKGDVVLDPFAGVGTTCVAAVKTGRHFVGIEINPEYVKKAEERVKDILSKPTLFEDHC

Source: the DeepSol protein solubility set
